According to publication PMC10250209, “UV-DDB stimulates the activity of SMUG1 during base excision repair of 5-hydroxymethyl-2'-deoxyuridine moieties”:

Legend:
[1] = biological target: single-strand selective monofunctional DNA glycosylase (SMUG1), His-tagged (UniProt Q53HV7); assay: single-molecule DNA tightrope assay, dual-colour Qdot co-localisation; 605 Qdot-labelled His-SMUG1 (2.6 nM) injected first, then 705 Qdot-labelled Flag-UV-DDB (3.1 nM), on DNA tightropes with one abasic (THF) site every 2 kb; 25 mM HEPES pH 7.5, 150 mM NaCl, 0.1 mg/ml BSA, 50 nM biotin, 1 mM DTT; RT
SMUG1 WT [2] = biological target: T1, SMUG1 WT (UniProt Q53HV7); assay: EMSA; conditions: apparent Kd; abasic substrate taken as THF37; tetrahydrofuran abasic analog (Z, written N) at position 20 of top strand, opposite T; EMSA: 8 nM DNA, 20 mM HEPES pH 7.5, 150 mM NaCl, 2 mM DTT (5 mM for SMUG1), 5% glycerol, 0.5 mg/ml BSA (0.5 mg/l [sic] for SMUG1), +/- 1.5 mM MgCl2, RT 20 min
T1 sequence: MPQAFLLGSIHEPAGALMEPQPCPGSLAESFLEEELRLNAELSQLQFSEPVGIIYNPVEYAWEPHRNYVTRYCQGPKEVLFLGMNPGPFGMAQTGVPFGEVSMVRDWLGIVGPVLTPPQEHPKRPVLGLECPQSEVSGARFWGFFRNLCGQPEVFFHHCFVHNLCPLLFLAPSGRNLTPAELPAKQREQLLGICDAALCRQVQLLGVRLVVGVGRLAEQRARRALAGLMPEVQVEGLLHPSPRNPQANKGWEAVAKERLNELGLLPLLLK

SMUG1 WT [3] = biological target: T1, SMUG1 WT; assay: single-molecule DNA tightrope; conditions: tetrahydrofuran abasic site every 2 kb, EMSA: 8 nM DNA, 20 mM HEPES pH 7.5, 150 mM NaCl, 2 mM DTT (5 mM for SMUG1), 5% glycerol, 0.5 mg/ml BSA (0.5 mg/l [sic] for SMUG1), +/- 1.5 mM MgCl2, RT 20 min
[4] = biological target: T2, UV-DDB (DDB1-DDB2 heterodimer) (UniProt Q16531;Q92466 1-1140;1-427); assay: EMSA; no Mg2+; EMSA: 8 nM DNA, 20 mM HEPES pH 7.5, 150 mM NaCl, 2 mM DTT (5 mM for SMUG1), 5% glycerol, 0.5 mg/ml BSA (0.5 mg/l [sic] for SMUG1), +/- 1.5 mM MgCl2, RT 20 min (30 min for displacement); 5% native gel, 1/2x TBE, 4 C; conditions: protein: recombinant, tags: DDB1-6xHis, DDB2-Flag, copies: 1;1, label: 3'-6FAM on top strand, blunt
T2 sequence (Q16531 whole entry, chain 1 of 2): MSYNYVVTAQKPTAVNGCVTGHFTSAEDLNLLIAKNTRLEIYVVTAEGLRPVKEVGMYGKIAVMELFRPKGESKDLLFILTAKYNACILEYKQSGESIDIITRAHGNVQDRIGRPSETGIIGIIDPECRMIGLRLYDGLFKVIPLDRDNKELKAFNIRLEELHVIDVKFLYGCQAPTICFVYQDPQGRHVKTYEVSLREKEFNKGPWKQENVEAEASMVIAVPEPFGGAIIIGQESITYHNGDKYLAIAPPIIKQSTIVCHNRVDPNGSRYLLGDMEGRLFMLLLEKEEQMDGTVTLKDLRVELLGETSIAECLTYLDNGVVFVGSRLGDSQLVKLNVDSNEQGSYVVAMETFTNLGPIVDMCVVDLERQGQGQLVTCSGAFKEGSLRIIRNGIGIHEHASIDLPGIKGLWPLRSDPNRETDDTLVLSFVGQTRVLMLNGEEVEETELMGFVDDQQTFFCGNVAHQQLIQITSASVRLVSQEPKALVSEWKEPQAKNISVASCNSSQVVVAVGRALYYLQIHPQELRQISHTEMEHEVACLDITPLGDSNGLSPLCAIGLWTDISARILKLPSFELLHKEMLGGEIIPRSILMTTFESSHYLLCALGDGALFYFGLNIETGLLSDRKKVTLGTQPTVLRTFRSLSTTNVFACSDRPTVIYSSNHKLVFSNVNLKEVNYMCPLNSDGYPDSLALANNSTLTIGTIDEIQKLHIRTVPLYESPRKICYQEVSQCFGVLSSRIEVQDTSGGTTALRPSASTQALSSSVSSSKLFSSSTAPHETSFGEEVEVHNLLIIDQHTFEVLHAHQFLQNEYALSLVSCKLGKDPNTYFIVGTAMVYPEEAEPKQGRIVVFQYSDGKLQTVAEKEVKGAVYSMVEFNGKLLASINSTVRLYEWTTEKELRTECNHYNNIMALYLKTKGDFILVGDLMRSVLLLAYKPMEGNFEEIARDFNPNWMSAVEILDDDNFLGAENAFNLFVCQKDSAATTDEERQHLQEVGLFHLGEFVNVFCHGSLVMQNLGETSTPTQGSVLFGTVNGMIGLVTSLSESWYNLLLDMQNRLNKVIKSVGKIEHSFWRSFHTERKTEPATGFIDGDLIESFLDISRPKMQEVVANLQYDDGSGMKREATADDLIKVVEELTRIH
T2 sequence (Q92466 whole entry, chain 2 of 2): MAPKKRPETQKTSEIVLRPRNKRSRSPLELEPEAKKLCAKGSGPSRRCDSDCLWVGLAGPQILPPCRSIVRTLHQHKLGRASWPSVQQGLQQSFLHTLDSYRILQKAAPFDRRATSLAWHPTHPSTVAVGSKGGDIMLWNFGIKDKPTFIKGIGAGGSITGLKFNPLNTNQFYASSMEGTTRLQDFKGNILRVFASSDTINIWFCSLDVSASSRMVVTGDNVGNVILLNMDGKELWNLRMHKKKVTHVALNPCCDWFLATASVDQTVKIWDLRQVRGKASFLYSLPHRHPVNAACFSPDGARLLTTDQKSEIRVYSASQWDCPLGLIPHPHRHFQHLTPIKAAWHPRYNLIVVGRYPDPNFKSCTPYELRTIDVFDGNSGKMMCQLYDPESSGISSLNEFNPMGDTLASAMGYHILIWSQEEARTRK

[5] = biological target: T2, UV-DDB (DDB1-DDB2 heterodimer); assay: EMSA; 1.5 mM Mg2+; EMSA: 8 nM DNA, 20 mM HEPES pH 7.5, 150 mM NaCl, 2 mM DTT (5 mM for SMUG1), 5% glycerol, 0.5 mg/ml BSA (0.5 mg/l [sic] for SMUG1), +/- 1.5 mM MgCl2, RT 20 min (30 min for displacement); 5% native gel, 1/2x TBE, 4 C; conditions: protein: recombinant, tags: DDB1-6xHis, DDB2-Flag, copies: 1;1, label: 3'-6FAM on top strand, blunt

UV-damaged DNA-binding protein (UV-DDB), DDB1-6xHis/DDB2-Flag heterodimer (from UniProt Q16531 1-1140; Q92466 1-427) (complex)
percent of all particles co-localised on abasic DNA [1]: 15.6%

CCGAGTCATTCCTGCAGCGNGTCCATGGGAGTCAAAT / ATTTGACTCCCATGGACTCGCTGCAGGAATGACTCGG [THF37]
Kd (SMUG1 WT [2]): 65 nM

DNA tightrope with one THF site every 2 kb
binding (SMUG1 WT [3]; bound half-life with equimolar unlabeled UV-DDB, Qdot-labeled SMUG1): 580 s
binding (SMUG1 WT [3]; bound half-life, SMUG1 alone, Qdot-labeled): 4950 s

B1: dU:dA37 (dsDNA)
DNA 1: CCGAGTCATTCCTGCAGCGAGUCCATGGGAGTCAAAT
DNA 2: ATTTGACTCCCATGGACTCGCTGCAGGAATGACTCGG
modifications: dU at position 22 of top strand, opposite dA
Kd [4]: 15 ± 1 nM
Kd [5]: 52 ± 3.4 nM

B2: 5-hmdU:dG37 (dsDNA)
DNA 1: CCGAGTCATTCCTGCAGCGAGUCCATGGGAGTCAAAT
DNA 2: ATTTGACTCCCATGGGCTCGCTGCAGGAATGACTCGG
modifications: 5-hydroxymethyl-dU (X, written U) at position 22 of top strand, opposite dG
Kd ([4]; 5-hmdU:G mispair): 16 ± 1.5 nM
Kd ([5]; 5-hmdU:G mispair): 27 ± 1.9 nM

B3: 5-hmdU:dA37 (dsDNA)
DNA 1: CCGAGTCATTCCTGCAGCGAGUCCATGGGAGTCAAAT
DNA 2: ATTTGACTCCCATGGACTCGCTGCAGGAATGACTCGG
modifications: 5-hydroxymethyl-dU (X, written U) at position 22 of top strand, opposite dA
Kd [4]: 14 ± 1.1 nM
Kd [5]: 48 ± 3 nM

B4: dU:dG37 (dsDNA)
DNA 1: CCGAGTCATTCCTGCAGCGAGUCCATGGGAGTCAAAT
DNA 2: ATTTGACTCCCATGGGCTCGCTGCAGGAATGACTCGG
modifications: dU at position 22 of top strand, opposite dG
Kd ([4]; U:G mispair): 18 ± 1.6 nM
Kd ([5]; U:G mispair): 21 ± 2.1 nM

B5: UD37 (undamaged) (dsDNA)
DNA 1: CCGAGTCATTCCTGCAGCGAGTCCATGGGAGTCAAAT
DNA 2: ATTTGACTCCCATGGACTCGCTGCAGGAATGACTCGG
Kd [4]: 31 ± 2 nM
Kd [5]: 125 ± 9.1 nM
